Assay: yeast display, Sf9 membrane polyspecificity reagent, FACS + sequencing; frameworks hold sequencing errors
How it was run: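 Synthetic nanobody libraries on Saccharomyces cerevisiae BJ5465 were galactose-induced for 36–48 hours, stained 1 hour at 4 °C with 10% biotinylated, detergent-solubilized Sf9 membrane reagent and enriched on streptavidin microbeads. FACS then separated cells into low and high (top ~1%) gates by anti-HA (expression) and streptavidin (reagent binding) fluorescence. Genes were colony-PCR amplified, MiSeq 2 × 250 sequenced and CDR-length filtered. A clone's polyreactivity label is that of its gate of origin.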

## PDQLVESGGGLVQAGGSLRLSCAASGRTFSGYGMGWYRQAPGKERELVAAFSSSGDSTYYADSVKGRFSIARDNPKNTVYVQMNSLKPDDPAVYYCNDYRRSYNGFRYYYWGQGTQVTVSS
  polyreactivity (PSR sort gate): low polyreactivity

## QDQLVESGGGLVQAGGSLRLSCAASGYTFFFYVMGWSRQAAGKERELVAAITFSVGSTYYADSVKRRFTISRDNAKNTVYLQMNSLKPEDTAVYYCAARGALYSHSYGSARYYYWGQGTQVTVSS
  polyreactivity (PSR sort gate): high polyreactivity

## QVQLVESGGGLVQAGGSLRLSCASSGRTFYPYAMGWYRQAPGKERDLDAAITWSGGSTYYADSVKGRFTISRDYAKITVYLQMNSLKPEDTAVYYCNATYEAYIYYEYDYWGQGTQVTVSS
  polyreactivity (PSR sort gate): low polyreactivity

## QVQLVESGGGLVQAGGSLRLSCAASGNIFYINTMGWYRQAPGKERELVAAIDASDGSTYYADSVKGRFTISRDNAKNSVYLQMYSLKPEDTAVYYCASRRGYDSVYYFYTLWYYYWGQGTQVTVSS
  polyreactivity (PSR sort gate): low polyreactivity

## QVQLVESGGGLVQAGGSLRLICAASGIIFAWYVMGWSRQAPGKERELVAAITQSGGSTFYADSVKGRFTISRDNAKNTVYLQLNSLKPEDTAVYYCNTDYFFNVPEMDSWGQGTQVTVYS
  polyreactivity (PSR sort gate): low polyreactivity

## QVQLVETGGGLVHAGVSLRLSCAASGSILSLNAMGWYRQAPGKERELVAVISNCGGSTYYADSVKGRFTISRDNAKNTVYFQMKSLNPEDTAVYYCAVALKYQRRYYYWGQGTQVTVSS
  polyreactivity (PSR sort gate): high polyreactivity

## QVQLVESGGGLVQAGGSLRLSCAASGSTFRNYAMGWYRQAPGKERELVATISASGGSTYYADSVKGRFTISRDNAKNTVYLQMNSLKPEDTAVYYCNAVVKLWGLVIPPGDYDYWGQGTQVTVSS
  polyreactivity (PSR sort gate): high polyreactivity

## QVQLVESGGGLVQAGGSLRLSCAASGLIFGRNAMGWYRQAPGKERELVAAINNSGGTTYYADSVKGRFTISRDNAKNTVYLQMNSLKPEDTAVYYCNAYFRNWRYSPGGYWGQGTQVTVSS
  polyreactivity (PSR sort gate): high polyreactivity

## QDQLVESGGGLVQAGGSLRLSCAASGFIFWRNTMGWYRQAPGKERELVAVITRGGSTYYADSVKGRFTISRDNAKNTVYLQMNSLKPEDTAVYYCAALNDYYKTFSGYDYWGQGTQVTVSS
  polyreactivity (PSR sort gate): low polyreactivity

## QVQLVESGGGLVQAGGSLRLSCAASGSIFFDNAMGWYRQAPGKERELVATINSGGNTHYADSVKGRFTISRDNAKNTVYLQMNSLKPEDTAVYSCAADFRSDLVDGYNYWGQGTQVTVSS
  polyreactivity (PSR sort gate): low polyreactivity

## QVQLVESGGGLVQAGGSLRLSCAASGRIFSRYTMGWYRQAPGKERELVAGITRGGGSTYYADSVKGRFTISRDNAKNTVYLQMNSLKPEDTAVYYCAATFAYHDGDYWGQGTQVTVSS
  polyreactivity (PSR sort gate): low polyreactivity

## QVQLVESGGGLVQAGGSLRLSCAASGSTFVTYAMGWYRQAPGKERELVAAISSGGGNTYYADSVKGRFTISRDNAKNTVYLQMNSLKPEDSAVYYCAAVNPRSEYDYWGQGTQVTVSS
  polyreactivity (PSR sort gate): high polyreactivity

## QVQLVESGGGLVQAGGSLRLSCAPSGRIFSINAMGWYRQAPGKERELVAAITSGGSTKYADSVKGRFTISRDNAKNTVYLQMNSLKPEDTAVYYCAAAPGYLYWKVDYNYWGQGTQVTVSS
  polyreactivity (PSR sort gate): high polyreactivity

## QVQLVESGGGLVQAGGSLRLSCAASGIIFGYYAMGWSRQEPGKERELVAAINQDGSSTYYADSVKGRFTISRDNAKNTVYLQMNSLKPEVTAVYYCNARGVPRQDARMGYWGEGTQVTVSS
  polyreactivity (PSR sort gate): low polyreactivity

## QVQLVESGGGLFQAGGSLRLSCAASGSISYYNAMGWYRQAPGKERELVATITDSGGSTYYADSVKGRFTISRDIAKNTVYLQMISLKPEDTAVYYCAVDFSEWYSIYDYWGQGTQVTVSS
  polyreactivity (PSR sort gate): low polyreactivity

## QVQLVESGGGLVQAGGSLRLSCAASGSTFSSNAMGWYRKAPGKERELVAAISVNGGSTNYADSVKGRFTISRDNAKNTVYLQMNSLKPEDTAVYYCAAEPAKVAFYRGDYWGQGTQVTVSS
  polyreactivity (PSR sort gate): low polyreactivity

## QVQHVESGGGLVQAGGSLRLSCAASGRIFWGYEMGWYRQAAGKEREFVAALSSGGGRTYYADSVKGRFTISRDNAKNTVYLQMNSLKPDDSGVYYSNAELNWYYYIHLDYWGQGTQVTVSW
  polyreactivity (PSR sort gate): low polyreactivity

## QVQLVESGGGLVQAGGSLRLSCAASGIIIDYYAMGWYRQAPGKERELVAAITSGGSTSYADSVKGRFTISRDNAKNTVYLQMNSLKPEDTAVYYCNTEPSGYESGYWGQGTQVTVSS
  polyreactivity (PSR sort gate): low polyreactivity

## QVQLVESGGGLVQAGGSLRLSCAASGFTFIRNAMGWYRQAPGKERELVAVITRSGGSTYYADSVKGRFTISRDNAKNTVYLQMNSLKPQDTAVYYCAATLRYSPRRRYDYWGQGTQVTVSS
  polyreactivity (PSR sort gate): high polyreactivity

## QVHLVESGGGLVQAGGSLPLSCAASGRTFIYNTMGWYRPAPGKERELVAAITRNGGSTNYADSVKGRFTISRDNAKNTVYLQMNSLKPEDTAVYYCAAKYIRFARSRDYWGQGTQVTVSS
  polyreactivity (PSR sort gate): high polyreactivity

## QVQLVESGGGLVQAGVSLRLSCAASGSTFTANAMGWYRQAPGKERELVAAITNSDGSTYYADSVKGRFTISRDNAKNTVYLQINSLKPEDTAVYYCAKDYYACFWEMDYWGQGTQVTVSS
  polyreactivity (PSR sort gate): low polyreactivity

## QVQLLESGGGLVQAGGSLRLSCAASGRTFVSYDMGWDRQAPGKEREVVAAITYSGGASTYYADSVKGRFTISRDYAKKTGYFQMNSLIPEDTAVYYCATDFSLSFELDYWGQGTQVTVSS
  polyreactivity (PSR sort gate): low polyreactivity

## QVQLVESGGGLVQAGGSLRLSCAASGFTFGSYAMGWYRQAPGKEREFVAAITRSGGRTYYADSVKGRFTISRDNAKNTVYLQMNSLKPEDTAVSYCNAYRSALYTPEYDYWGQGTQVNVSS
  polyreactivity (PSR sort gate): high polyreactivity

## QVQLVESGGGLVQAGGSLRLSCAPSGIIFQFYAMGWYRQAPGKERELVAAISRSGGITHYADSVKGRFTISRDNAKNTVYLQMNSLKPEDTAVYYCAAVRQAYPRLDYWGQGTQVTVSS
  polyreactivity (PSR sort gate): high polyreactivity

## QVQLVESGGGLVQAGGSLRLSCAASGSTFRYYAMGWYRQAPGKERELVAAISSSGGSTYYADSVKGRFTISRDNAKNTVYLQLNSLKPEDTAVYYCNRGVVYRTGRFDYWGQVTQVTVSS
  polyreactivity (PSR sort gate): high polyreactivity

## QVQLVESGVGLVQAGGSLRLSCAASGRTISYNARGWYRQAPGKEREFVADINYSAGSTYYADSVKGRFTISRDNAKNTGKLQMNRLKPEDTAVYYCAAKYYGEMYSWGQGTQVSVSS
  polyreactivity (PSR sort gate): low polyreactivity

## QVQLVESGGGLVQAGGSLRLSCAASGSIFNYYAMGWYRQAPGKERELVAAIRSTGSTNYADSVKGRFTISRDNAKNTVYLQMNSLKPEDTAVYYCATDVSDWLYFAEHYYWGQGTQVTVSS
  polyreactivity (PSR sort gate): low polyreactivity

## QVQLVESGGGLVQAGGSLGLSCAASGFIVGYYTMGWDRQAPGKERELVAAISSSGGRTYDADSVKGRFTISRDKAKNTVYFQMNSLKPEDTAVYYCNADRTLRFGYGYCGQGTQVTVSS
  polyreactivity (PSR sort gate): low polyreactivity

## QVQLVESGGGLVQAGGSLRLSCAASGRTFGYYAMGWYRQAPGIERELVATITWGDGTTYYADSVKGRFTFSRDNAKNTVYLQMNILKPEDTAVYYCAVDRSSWWWDDYRYDYWGQGTQVTVSS
  polyreactivity (PSR sort gate): low polyreactivity

## QVQLVESGGGLVQAGGSLRLSCAASGLIDSYYAMGWYRQAPGKERELVAVITSGGSTYYADSVKGRFTISRDNAKNTVYLQMNSLNPEDTAVYYCAARVRVSYNRYHGLYAVSRGDYWGQGTQVTVSS
  polyreactivity (PSR sort gate): high polyreactivity

## QVQLVESGGGLVQAGGSLRLSCAASGSIFQGNVMGWYRQAPGKERELVAAIRNSGGTTYYADSVKGRFTISRDNAKNTVYLQMNSLKPEDTAVYYCAARYINRYPKAQPTDRSIYYWGQGTQVTVSS
  polyreactivity (PSR sort gate): high polyreactivity

## QDQLVESGGGLVQAGGSLRLSCAASGFTFYAYSMGWYRQAPGKERELVAAITYIGSTYYADSVKGRFTISRDNAKNTVYLQMNSLKPEDTAVYYCAAVKVFLGLGYDYWGQGTQVTVSS
  polyreactivity (PSR sort gate): low polyreactivity

## QVQLVESGGGLVQPGGSLRLSCAASGRTFYEYAMGWYRPAPGKERELVAGITSGGSTNYADSVKGRFTISRDNAKNTVYLQMNSLKPEDTAVYYCAASYWGYEYDYWGQGTQVTVSS
  polyreactivity (PSR sort gate): low polyreactivity

## QVQLVESGGGLVQAGGSLRLSCAASGSIFLRNAMGWYRQAPGKERELVAAITKRGGSTYYADSVKGRFTISRDNAKNTVYLQMNSLKPEDTAVYYCNVDTYANTAFVRKPMYYWGQGTQVTVSS
  polyreactivity (PSR sort gate): low polyreactivity

## QVQLVESGGGLVQAGGTLRLSCAASGITFTGNDMGWYRQAPGKERELVAAISNRGGSTYYADSVKGRFTISRDNAKNTVYLQMNSLKPEDTAVYYCRTSTPRRVSGNYWGQGTQVTVSS
  polyreactivity (PSR sort gate): high polyreactivity

## QVQLVESGGGLVQAGGSLRLSCPASGRTFYGYPMGWYRQAPGKERELVAAISRRGGSTNYADSVKGRFTISRDHAKNTVYLQMNSRKPEDTAVYSCNANYYRTHYDYWGQGTQVTVSS
  polyreactivity (PSR sort gate): high polyreactivity

## QVQLVESGGGLVQAGGSLRLSCAASGRIFKRNTMGWYRQAPGKEWELVAAITRSGGSTHYADSVKGRFTFSRDNAKNTVYLHMNSLKPEDTAVYYCAVRAAAIDRLAQFDYWGQGSQVTVSS
  polyreactivity (PSR sort gate): low polyreactivity

## QVQLVESGGGLVQAGGSLRLSCAASGSIFIYYAMGWYRQAPGKERELVAAIDYSGDSTYYADSVKGRFTISRDNAKNTVYLQMNSLKPEDTAVYYCAVYYAGWGDYWGQGTQVTVSS
  polyreactivity (PSR sort gate): low polyreactivity

## QVQLVESGGGLVQAGGSLRLSCAASGFIFYYYAMGWYRQAPGKERELVAGITATGGSTYYEDSVKGRFTISRDNAKNTVYLQMNSLKPEDTAVYYCAAEHGRRATYTWWVIYDYWGQGTQVTVSS
  polyreactivity (PSR sort gate): low polyreactivity

## QVQLVESGGGLVQAGGSLRLSCAASGSIFGLYVMGWDRQAPGKERELVATITSGGSTYYADSVKGRFTISRDNAKNTVYLQMNSLKPEDTAVYYCAADPQDAAYLKYLFYDYDYWGQGTQVTVSS
  polyreactivity (PSR sort gate): low polyreactivity

## QVQLVESGGCLVQAGGSLRLSCAASGSIFEYYAMAWSRQAPGKERELVAAINSGDITKYADSVKGRFTISRDNAKNTVYLQMNSLKPEDTAVYYCAKRLSSREYYWGQGSQVTVSS
  polyreactivity (PSR sort gate): high polyreactivity

## QVQLVESGGGLVQAGGSLRLSCAASGSTFYANAMGWYIQPPGKERELVAAISRSGGRTYYADSVKGRFTISRDTAKKTVYLQMNSLKTEDNSVYYCAKAYHHSEFDYWGQGTQVTVSS
  polyreactivity (PSR sort gate): high polyreactivity

## QVQLVESGGGLVQAGGSLRLRCASSGSIFYWYAMGWYRQAPGKERELVAAISRSGGSTYYADSVKGRFTISRDNAKNTVYLQMNSLKPEDTAVYYCATELSYRHGYWGQGTQVTVSS
  polyreactivity (PSR sort gate): high polyreactivity

— the nanobody polyreactivity screen of Harvey et al. (2022)
